These results are taken from paper PMC4525183, “Snf1/AMP-activated protein kinase activates Arf3p to promote invasive yeast growth via a non-canonical GEF domain” (Nature Communications, 2015).

T1: GST-Snf1-C (a.a. 311–633) (S. cerevisiae, UniProt P06782 311-633)
T1 construct: Snf1p, S. cerevisiae, C-terminal regulatory domain, a.a; 311–633; Vector pGEX4T-1; also called C-terminal regulatory domain of Snf1p; source: E. coli BL21 (DE3), purified (glutathione-Sepharose 4B)
T1 sequence (looked up): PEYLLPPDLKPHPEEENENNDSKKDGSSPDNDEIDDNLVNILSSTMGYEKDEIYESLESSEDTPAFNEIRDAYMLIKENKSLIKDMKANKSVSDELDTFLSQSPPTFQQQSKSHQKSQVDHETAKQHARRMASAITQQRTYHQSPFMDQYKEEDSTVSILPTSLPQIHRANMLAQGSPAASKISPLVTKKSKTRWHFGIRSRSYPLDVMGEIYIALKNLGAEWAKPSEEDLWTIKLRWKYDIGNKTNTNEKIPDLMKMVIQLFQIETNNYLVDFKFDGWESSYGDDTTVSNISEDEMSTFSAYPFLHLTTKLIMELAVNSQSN

B1: GST-Snf1-C1 (a.a. 392–518) (domain or fragment, S. cerevisiae, UniProt P06782 392-518, looked up)
chain: LIKDMKANKSVSDELDTFLSQSPPTFQQQSKSHQKSQVDHETAKQHARRMASAITQQRTYHQSPFMDQYKEEDSTVSILPTSLPQIHRANMLAQGSPAASKISPLVTKKSKTRWHFGIRSRSYPLDV
notes: Snf1p, S. cerevisiae, a.a; Vector pGEX4T-1; source: E. coli BL21 (DE3), purified (glutathione-Sepharose 4B)
B2: His-Arf3^T31N (natural protein, S. cerevisiae, UniProt P40994 1-183, looked up)
chain: MGNSISKVLGKLFGSKEMKILMLGLDKAGKNTILYKLKLNKIKTSTPTVGFNVETVTYKNVKFNMWDVGGQQRLRPLWRHYFPATTALIFVIDSSARNRMEEAKEELYSIIGEKEMENVVLLVWANKQDLKDAMKPQEVSDFLELEKNLKNQPWCVIGSNALSGQGLVEGLSWISNNTNVPKK
notes: Arf3p, S. cerevisiae; T31N; plasmid pET32a-ARF3 (T31N); pET32a usually adds thioredoxin, His and S tags before the insert

For the assay “His-Arf3^T31N”, the target named is B2. Nature of the assay: pull-down; GST fusions on glutathione-Sepharose 4B beads, His-tagged protein in solution (His-Arf3 loaded with GDP or GTPγS); 50 mM Tris-HCl pH 7.5, 150 mM NaCl, 1% Triton X-100, 1 mM DTT, 10 mM MgCl2; 1 h, 4 °C; anti-His blot. The note with it: both partners purified.
The target in assay [1] is T1, GST-Snf1-C (a.a. 311–633). The assay is described as above. The note with it: both partners purified.

Regarding B1, the binding result with His-Arf3^T31N is listed as “binds”. With B2, the binding result in assay [1] is listed as “binds”.
